Assay results published in patent publication US20210253718A1, “FRIZZLED5 PROTEIN-BINDING AGENTS” (Modmab Therapeutics Corporation, priority 2016, published 2021).
Where a chain is given by its changes, count along the chain named.

T1: FZD6 CRD (Homo sapiens, UniProt O60353)
T1 construct: S20-P146; GPI anchor signal (C); expressed in transfected cells; host or cells: CHO cells, lentiviral pLenti-puro
T1 sequence (O60353 20-146): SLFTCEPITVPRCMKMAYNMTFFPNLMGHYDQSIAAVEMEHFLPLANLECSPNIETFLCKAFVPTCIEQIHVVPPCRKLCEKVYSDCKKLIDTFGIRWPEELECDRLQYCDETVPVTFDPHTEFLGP

T2: FZD9 CRD (Homo sapiens, UniProt O00144)
T2 construct: G35-A161; GPI anchor signal (C); expressed in transfected cells; host or cells: CHO cells, lentiviral pLenti-puro
T2 sequence (O00144 35-161): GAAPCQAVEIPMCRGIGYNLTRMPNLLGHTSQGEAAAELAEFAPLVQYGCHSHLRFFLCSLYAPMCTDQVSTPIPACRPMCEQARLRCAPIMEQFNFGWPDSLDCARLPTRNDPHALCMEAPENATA

T3: FZD10 CRD (Homo sapiens, UniProt Q9ULW2)
T3 construct: 30-156; GPI anchor signal (C); expressed in transfected cells; host or cells: CHO cells, lentiviral pLenti-puro
T3 sequence (Q9ULW2 30-156): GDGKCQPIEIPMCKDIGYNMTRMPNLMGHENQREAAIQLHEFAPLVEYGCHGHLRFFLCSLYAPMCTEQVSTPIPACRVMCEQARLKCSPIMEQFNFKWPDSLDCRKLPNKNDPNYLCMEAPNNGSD

T4: FZD8 CRD (Homo sapiens, UniProt Q9H461)
T4 construct: K31-D155; GPI anchor signal (C); expressed in transfected cells; host or cells: CHO cells, lentiviral pLenti-puro
T4 sequence (Q9H461 31-155): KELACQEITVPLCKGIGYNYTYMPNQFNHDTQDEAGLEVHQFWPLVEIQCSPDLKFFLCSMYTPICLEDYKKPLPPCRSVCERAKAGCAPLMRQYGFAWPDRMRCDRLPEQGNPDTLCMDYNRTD

B1: Fab-2913: anti-FZD5 Fab with antibody variable region Fv-2913; CDR SEQ ID NOs: 35, 36, 52, 91, 128, 165 (antibody, V domains shown)
VH: EVQLVESGGGLVQPGGSLRLSCAASGFNISYSSIHWVRQAPGKGLEWVASIYPYSSSTSYADSVKGRFTISADTSKNTAYLQMNSLRAEDTAVYYCARYGYYGLDYWGQGTLVTVSS
VL: DIQMTQSPSSLSASVGDRVTITCRASQSVSSAVAWYQQKPGKAPKLLIYSASSLYSGVPSRFSGSRSGTDFTLTISSLQPEDFATYYCQQWGVSHYLFTFGQGTKVEIK
B2: Fab-2910: anti-FZD5 Fab with antibody variable region Fv-2910; CDR SEQ ID NOs: 35, 36, 49, 88, 125, 162 (antibody, V domains shown)
VH: EVQLVESGGGLVQPGGSLRLSCAASGFNISYSYMHWVRQAPGKGLEWVASIYSSSSSTSYADSVKGRFTISADTSKNTAYLQMNSLRAEDTAVYYCARGAMDYWGQGTLVTVSS
VL: DIQMTQSPSSLSASVGDRVTITCRASQSVSSAVAWYQQKPGKAPKLLIYSASSLYSGVPSRFSGSRSGTDFTLTISSLQPEDFATYYCQQWYGSHLITFGQGTKVEIK
B3: Fab-2912: anti-FZD5 Fab with antibody variable region Fv-2912; CDR SEQ ID NOs: 35, 36, 51, 90, 127, 164 (antibody, V domains shown)
VH: EVQLVESGGGLVQPGGSLRLSCAASGFNISYSYIHWVRQAPGKGLEWVASISSSSGYTSYADSVKGRFTISADTSKNTAYLQMNSLRAEDTAVYYCARTVRGSKKPYFSGWAMDYWGQGTLVTVSS
VL: B2 VL with W91F, G93F, S94P, H95Y

These molecules were tested on HPAFII cells (assay: Effect of anti-FZD5 Fabs on proliferation of pancreatic cancer cell lines (percent growth inhibition)). Settings: Fab 2 μg/ml.
Assay type: cell-based, human
Protocol: (§1) The effect of presently disclosed anti-FZD5 Fabs on proliferation of RNF43 loss-of-function mutant pancreatic cancer cell lines HPAFII, PATU8988S and ASPC-1; and on pancreatic cancer cell line RWP1, was tested at […] and 10 μg/ml.
B1 was tested, and the “percent growth inhibition, HPAFII 2 μg/ml” value was −5.59%. For B2, the “percent growth inhibition, HPAFII 2 μg/ml” value was 26.86%. For B3, the “percent growth inhibition, HPAFII 2 μg/ml” value was 7.76%.

Same assay, conditions: Fab 10 μg/ml
B1 was tested, and the “percent growth inhibition, HPAFII 10 μg/ml” value was −28.52%. In the case of B2, the “percent growth inhibition, HPAFII 10 μg/ml” value is reported as 41.81%. For B3, the “percent growth inhibition, HPAFII 10 μg/ml” value was −5.41%.

What follows are molecules tested on ASPC-1 cells in the same assay as above. Settings: Fab 10 μg/ml.
Assay type: cell-based, human
Protocol: as §1
For B1, the “percent growth inhibition, ASPC-1 10 μg/ml” value was −7.73%. With B2 the “percent growth inhibition, ASPC-1 10 μg/ml” value was 41.71%. For B3, the “percent growth inhibition, ASPC-1 10 μg/ml” value was 1.76%.

The molecules below were run on RWP1 cells in the same assay as above. Settings: Fab 10 μg/ml.
Assay type: cell-based, human
Protocol: as §1
For B1, the “percent growth inhibition, RWP1 10 μg/ml” value was 68.29%. In the case of B2, the “percent growth inhibition, RWP1 10 μg/ml” value is reported as 54.51%. In the case of B3, the “percent growth inhibition, RWP1 10 μg/ml” value is reported as 27.25%.

The molecules below were run on PATU8988S cells in the same assay as above. Settings: Fab 10 μg/ml.
Assay type: cell-based, human
Protocol: as §1
In the case of B1, the “percent growth inhibition, PATU8988s 10 μg/ml” value is reported as −43.04%. With B2 the “percent growth inhibition, PATU8988s 10 μg/ml” value was −12.84%. B3 was tested, and the “percent growth inhibition, PATU8988s 10 μg/ml” value was −25.71%.

The molecules below were run against T1, FZD6 CRD (assay: Immunofluorescence of anti-FZD5 Fab binding to CHO cells overexpressing Frizzled CRD). Settings: not given.
Parameters: key: −: no binding; +: very weak binder; ++: weak binder; +++: good binder; ++++: very good binder
Summary of the method: (§2)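 CHO panel, 10 lines, each w/ one human FZD CRD-myc-GPI (lentiviral). Anti-FZD5 Fabs applied; surface binding scored by IF, cross-checked by FACS.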
With B1 the “Immunofluorescence binding, Frizzled CRD overexpressed on CHO cells: FZD6” value (from here on “Immunofluorescence binding … FZD6”) was “−”. B2 was tested, and the “Immunofluorescence binding … FZD6” value was “−”. With B3 the “Immunofluorescence binding … FZD6” value was “−”.

These molecules were tested against T5, FZD2 CRD (Homo sapiens, UniProt Q14332) in the same assay as above. Settings: not given.
T5 construct: D35-P161; GPI anchor signal (C); expressed in transfected cells; host or cells: CHO cells, lentiviral pLenti-puro
Parameters: key: −: no binding; +: very weak binder; ++: weak binder; +++: good binder; ++++: very good binder
Summary of the method: as §2
In the case of B1, the “Immunofluorescence binding, Frizzled CRD overexpressed on CHO cells: FZD2” value (from here on “Immunofluorescence binding … FZD2”) is reported as “+++”. B2 was tested, and the “Immunofluorescence binding … FZD2” value was “−”. B3 was tested, and the “Immunofluorescence binding … FZD2” value was “+++”.

The molecules below were run against T2, FZD9 CRD in the same assay as above. Settings: not given.
Parameters: key: −: no binding; +: very weak binder; ++: weak binder; +++: good binder; ++++: very good binder
Summary of the method: as §2
For B1, the “Immunofluorescence binding, Frizzled CRD overexpressed on CHO cells: FZD9” value (from here on “Immunofluorescence binding … FZD9”) was “−”. For B2, the “Immunofluorescence binding … FZD9” value was “−”. B3 was tested, and the “Immunofluorescence binding … FZD9” value was “−”.

The molecules below were run against T3, FZD10 CRD in the same assay as above. Settings: not given.
Parameters: key: −: no binding; +: very weak binder; ++: weak binder; +++: good binder; ++++: very good binder
Summary of the method: as §2
B1 was tested, and the “Immunofluorescence binding, Frizzled CRD overexpressed on CHO cells: FZD10” value (from here on “Immunofluorescence binding … FZD10”) was “−”. B2 was tested, and the “Immunofluorescence binding … FZD10” value was “−”. In the case of B3, the “Immunofluorescence binding … FZD10” value is reported as “−”.

What follows are molecules tested against T4, FZD8 CRD in the same assay as above. Settings: not given.
Parameters: key: −: no binding; +: very weak binder; ++: weak binder; +++: good binder; ++++: very good binder
Summary of the method: as §2
B1 was tested, and the “Immunofluorescence binding, Frizzled CRD overexpressed on CHO cells: FZD8” value (shortened to “Immunofluorescence binding … FZD8”) was “−”. In the case of B2, the “Immunofluorescence binding … FZD8” value is reported as “−”. With B3 the “Immunofluorescence binding … FZD8” value was “+”.

The molecules below were run on RWP1 cells (assay: Effect of anti-FZD5 Fabs on proliferation of pancreatic cancer cell lines (percent growth inhibition)). Settings: Fab 2 μg/ml.
Assay type: cell-based, human
With B1 the “percent growth inhibition, RWP1 2 μg/ml” value was 59.79%. For B2, the “percent growth inhibition, RWP1 2 μg/ml” value was 71.49%. B3 was tested, and the “percent growth inhibition, RWP1 2 μg/ml” value was 15.55%.

What follows are molecules tested on ASPC-1 cells in the same assay as above. Settings: Fab 2 μg/ml.
Assay type: cell-based, human
For B1, the “percent growth inhibition, ASPC-1 2 μg/ml” value was 2.25%. With B2 the “percent growth inhibition, ASPC-1 2 μg/ml” value was 39.05%. B3 was tested, and the “percent growth inhibition, ASPC-1 2 μg/ml” value was 6.93%.

Each molecule was assayed on PATU8988S cells in the same assay as above. Settings: Fab 2 μg/ml.
Assay type: cell-based, human
With B1 the “percent growth inhibition, PATU8988s 2 μg/ml” value was −15.09%. With B2 the “percent growth inhibition, PATU8988s 2 μg/ml” value was 8.48%. With B3 the “percent growth inhibition, PATU8988s 2 μg/ml” value was 1.11%.
